Results: FireProtDB (doi:10.1016/s0014-5793(99)01395-2)

B1: Endolysin, P03706 (parent)
chain: MVEINNQRKAFLDMLAWSEGTDNGRQKTRNHGYDVIVGGELFTDYSDHPRKLVTLNPKLKSTGAGRYQLLSRWWDAYRKQLGLKDFSPKSQDAVALQQIKERGALPMIDRGDIRQAIDRCSNIWASLPGAGYGQFEHKADSLIAKFKEAGGTVREIDV

Variants of: B1
Conditions: Escherichia phage lambda, pH 7, Thermal, Fluorescence, phosphate buffer 100 mM, reversible: yes, structure 1AM7, whole UniProt chain shown; for ddG of mutation (higher = less stable) / unfolding free energy: 25 °C

| Variant | ddG of mutation (higher = less stable) | unfolding free energy | Tm | change of melting temperature, mutant - wild type (higher = more stable) | unfolding enthalpy (van 't Hoff) |
| --- | --- | --- | --- | --- | --- |
| MVEINNQRKAFLDMLAWSEGTDNGRQKTRNHGYDVIVGGELFTDYSDNPRKLVTLNPKLKSTGAGRYQLLSRWWDAYRKQLGLKDFSPKSQDAVALQQIKERGALPMIDRGDIRQAIDRCSNIWASLPGAGYGQFEHKADSLIAKFKEAGGTVREIDV [H48N] | 5 kcal/mol | 2.1 kcal/mol | 30.1 °C | -22.2 °C | 60.8 kcal/mol |
| MVEINNQRKAFLDMLAWSEGTDNGRQKTRNDGYDVIVGGELFTDYSDHPRKLVTLNPKLKSTGAGRYQLLSRWWDAYRKQLGLKDFSPKSQDAVALQQIKERGALPMIDRGDIRQAIDRCSNIWASLPGAGYGQFEHKADSLIAKFKEAGGTVREIDV [H31D] | 1.6 kcal/mol | 5.5 kcal/mol | 46.1 °C | -6.2 °C | 99.8 kcal/mol |
| MVEINNQRKAFLDMLAWSEGTDNGRQKTRNNGYDVIVGGELFTDYSDHPRKLVTLNPKLKSTGAGRYQLLSRWWDAYRKQLGLKDFSPKSQDAVALQQIKERGALPMIDRGDIRQAIDRCSNIWASLPGAGYGQFENKADSLIAKFKEAGGTVREIDV [H31N H137N] | -1.8 kcal/mol | 8.9 kcal/mol | – | – | – |
